Results as given in patent publication CN106084046A (UNIV SUN YAT SEN, dated 2016).

B1: 抗CD3单域抗体 A30249 (VHH)
VHH: QVKLEESGGGLVQAGGSLRVSCTASGRTFDTMGWFRQAPGKEREFVAAVRWSSGNTLYGNTVKGRFTISRDTATNTVYLQMSSLKHEDTAVYYCAARVGGRGAADHWGQGTQVTVSS
notes: Llama sdAb from a phage display library; Tested as sdAb-SASA protein in crude expression medium / culture supernatant, not purified; also called sdAb; sdAb-SASA; not shown: SASA fusion partner from the pFASEBA vector (sdAb-SASA protein in expression medium)

Assays:
[1] = target: CD3 on Jurkat靶标细胞 (human) (UniProt P07766); assay: flow cytometry, culture supernatant of the negative control sdAb on Jurkat cells (TG1 background supernatant: 132.03)
[2] = target: CD3 on Jurkat靶标细胞 (human) (UniProt P07766); assay: flow cytometry, culture supernatant on Jurkat cells
CD3-His蛋白(MP-5) = target: T1, CD3-His蛋白(MP-5) (human, UniProt P07766 23-126); assay: BLI (Octet RED96) off-rate screen, sdAb-SASA from expression medium captured on BSA-coated biosensor, 100 nM CD3 in solution, 30°C, 1:1 Langmuir model
T1 construct: Immunogen and panning antigen; also called CD3蛋白; not shown: His tag
T1 sequence (P07766 23-126): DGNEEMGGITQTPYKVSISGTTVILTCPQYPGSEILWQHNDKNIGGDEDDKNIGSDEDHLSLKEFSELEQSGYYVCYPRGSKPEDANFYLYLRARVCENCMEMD

Molecule	MFI [1] [MFI]	MFI [2] [MFI]	koff (CD3-His蛋白(MP-5)) [s⁻¹]
NC-sdAb(相同形式的非相关性sdAb) (VHH)	115	–	–
B1	–	217	4.92e-05
